Here are results for 14 molecules from patent publication US20160052996A1.

Broadly, the EC50 is the midpoint of the concentration-response curve. A high value points to a less potent agent.

The target of assay [1] is BKV VP1 (BK virus (BKV), AS strain) (UniProt P14996). Kind of assay: direct ELISA.
For assay [2], the target named is BKV VP1 VLP (BK virus (BKV), AS strain) (UniProt P14996). Kind of assay: direct ELISA.
The target in assay [3] is BKV VP1 (BK virus (BKV), AS strain) (UniProt P14996). Kind of assay: direct ELISA, plate coated with antigen at 5 µg/ml in carbonate buffer; EC50 by non-linear regression (GraphPad Prism). Background: ELISA stands for enzyme-linked immunosorbent assay.
Assay [4] concerns the target BKV VP1 VLP (BK virus (BKV), AS strain) (UniProt P14996). Kind of assay: direct ELISA, plate coated with antigen at 5 µg/ml in reassociation buffer (VLP); EC50 by non-linear regression (GraphPad Prism).
Assay [5] concerns the target JCV VP1 VLP (JC virus (JCV), Mad-1 strain) (UniProt P03089). Put plainly: direct ELISA.

Sequence of BKV VP1 VLP (BK virus (BKV), AS strain) (P14996 whole entry): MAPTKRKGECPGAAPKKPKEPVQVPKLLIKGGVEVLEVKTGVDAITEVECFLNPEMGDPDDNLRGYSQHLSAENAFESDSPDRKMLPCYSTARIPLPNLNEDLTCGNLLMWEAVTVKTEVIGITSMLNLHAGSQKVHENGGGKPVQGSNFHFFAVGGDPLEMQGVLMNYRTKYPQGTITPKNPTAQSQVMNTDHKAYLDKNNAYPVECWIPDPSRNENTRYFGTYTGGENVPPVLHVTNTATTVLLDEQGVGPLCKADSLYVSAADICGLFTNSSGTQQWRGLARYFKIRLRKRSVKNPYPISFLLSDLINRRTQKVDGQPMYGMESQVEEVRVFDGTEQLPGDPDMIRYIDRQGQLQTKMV
Sequence of BKV VP1 (BK virus (BKV), AS strain) (P14996 whole entry): as above
Sequence of JCV VP1 VLP (JC virus (JCV), Mad-1 strain) (P03089 whole entry): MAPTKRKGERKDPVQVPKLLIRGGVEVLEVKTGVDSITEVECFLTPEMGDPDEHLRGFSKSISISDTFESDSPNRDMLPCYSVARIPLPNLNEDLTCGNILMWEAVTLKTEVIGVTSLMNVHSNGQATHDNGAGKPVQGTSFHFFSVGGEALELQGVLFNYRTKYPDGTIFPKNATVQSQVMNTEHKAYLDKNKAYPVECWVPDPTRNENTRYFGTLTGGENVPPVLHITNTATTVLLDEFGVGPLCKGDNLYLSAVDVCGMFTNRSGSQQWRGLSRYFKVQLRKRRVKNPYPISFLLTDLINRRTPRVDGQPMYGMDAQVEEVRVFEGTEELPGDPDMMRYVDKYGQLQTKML

B1: NI-307.57D5 (antibody, V domains shown)
VH: EVQLVESGGGLAQPGGSLRLSCAGSGFTLSDFAMSWVRRAPGKGLEWVSSLTPSGRNSFYSDSVKGRFTISRDNWKNTLYLEMNLLRPEDTAVYYCARPGAPKNSDSKYSYVRVDFQHWGQGTLVTVSS
VL: NFMLTQPHSVSESPGRTVTISCTRSSGSIANNFVQWYQHRPGSAPTTLIYEDDQRPSGVPDRFSGSVDSFSNSASLTISGLKTEDEADYFCQSYDNHNWVFGGGTTLTVL
With B1, the figures for the EC50 in assay [1] and in assay [2] were 37.5 nM and 104 nM, respectively.

B2: NI-307.3G4 (antibody, V domains shown)
VH: QVQLVQSGAELKKPGAAVKVSCQASGYNFLSYGINWVRQIPGQGLQWLGWISTYDGTMNYDQKPDNRVTVTTDTSSSTVYLELRGLRSDDTGVYYCVRDRCAGAGCSHSLGYWGQGTLVTVSS
VL: DIQMTQSPSALSASVGDRVTISCRASQNINTQLNWYQEKPGKAPELLIYGAFNLQSGAPSTFSGSGSGTDFTLTITSLQPEDFASYYCQQGFHAPYTFGRGTKVDIK
For the molecule B2, the concentration for a half-maximal effect (EC50) in assay [1] was determined as 27.4 nM; in assay [2] it was 16.4 nM.

B3: NI-307.43A11 (antibody, V domains shown)
VH: QVQLQESGPGLVKPSGTLSLTCAVTGGSISSSNWWSWVRQSPGKGLEWIGEIHHDGNLNYNPLLKSRVSMSLDRSKNQFSLKLTSVTAADTAVYYCARWDFFFDSSYYIRGFDLWGQGTMVTVSS
VL: ETTLTQSPGTLSLSPGERVTLSCRASQSVDRNYLAWYQQKPGQSPRLLIYSASRRATGIPDRFSGSGSGTDFTLTISRLEPEDFVVYYCQQYGGSPPITFGQGTRLEIK
For the molecule B3, the EC50 stood at 9.7 nM in assay [1] and 10 nM in assay [2].

B4: NI-307.6A2 (antibody, V domains shown)
VH: QVQLQESGPGLVKPSETLSLTCAVSGGSVSSSYWYSWVRQLPGKGLEWIGEIFHTGDTNYNPSLESRVTISIDTSKNQLSLDVTSATAADTAVYYCARDYCTDSGCDSDALDVWGHGTMVTVSS
VL: QSALTQPASVSGSPGQSITISCTGTTKDVGNYNLVSWYQQHPGKAPRLVIYEVSERPSGVSNRFSGSKSGNTASLTISGLQAEDEADYHCCSYAGSGTSVFGGGTKVTVL
Turning to B4, the EC50 was 1.79 nM in assay [1] and 1.17 nM in assay [2].

B5: NI-307.5H3 (antibody, V domains shown)
VH: QVQLQESGPGLLKPLGTLSLICDVSGDSISSSNWWSWVRQSPRKGLEWIGEIYHSGRTNYNPSLTNRVTISVDKSKNQFSLNLNSVTAADTGVYYCARWDYYYNNDYYIRGFDIWGQGTMVTVSS
VL: EIVLTQSPGILSLSPGERATLSCRASQSVDSNYLAWYQQKPGQAPRLLIYSTSTRAAGVPDRFSGSGSGTDFALTISGLEPEDFAVYYCQQWGGSPPITFGQGTRLEIK
With B5, the figures for the EC50 in assay [1] and in assay [2] were 0.362 nM and 0.288 nM, respectively.

B6: NI-307.19F10 (antibody, V domains shown)
VH: EVQLVESGGGLVQPGGSVSLSCAASGFTFPVYWMHWVRQAPEKGLMWVSRISPDGTIVDYAGSVKGRFTVSRDNAKNILYLQIQRLTAEDTAVYFCTKDFDVASGFWGQGTLVTVSS
VL: QSALTQPPSASGSPGQSVTISCTGSKSDVGTCHFVSWYQQHPGKVPKLVIYEGNKRPSGVPDRFSASKSGNTASLTISGLQPGDEADYYCSTCAGPNNYVFGTGTKVTVL
In the case of B6, the EC50 in assay [1] is 2.41 nM; in assay [2], 1.1 nM.

B7: NI-307.78C3 (antibody, V domains shown)
VH: QVQLQESGPGLVKPSGTLSLTCTVSGGSISGRIWWSWVRQPPGKGLEWIGEIYHSGSTNYSPSLRGRVTISVDTSKQHFSLKMTSVTAADTAMYYCVRGELALGFDSWGQGTLVTVSS
VL: QSALTQPPSASGSPGQSVTISCTGTSSDVGGYNSVSWYQQHPRRAPKLMIYEVSKRPSGVPDRFSGSKSGNTASLTVSGLQADDEAHYYCSSYAGSNNLVFGGGTMLTVL
With B7, the EC50 in assay [1] was determined as 1.96 nM; in assay [2], 0.939 nM.

B8: NI-307.18E12 (antibody, V domains shown)
VH: QVQLQQWGAGLLKPSETLSLTCAVYGDSFSGFFWAWIRQTPGTGLEWIGEIQHGGSPTYNPSFESRLTISTDASKSQVSLKMTSVTVTDTAIYYCARCIRGKYGSGSLQLWSQGTLVTVSS
VL: DIQLTQSPSFLSASVGDRVTITCRASQDINYHLAWYRQKPGKAPDLLIHSAHTLHIGVSSRFSGSGSGTEFTLTIHTLQPEDFATYYCHQPKTFPPTFGGGTKVDIK
Regarding B8, the EC50 worked out at 61.5 nM in assay [3] and 111 nM in assay [4].

B9: NI-307.25G10 (antibody, V domains shown)
VH: EVQLVESGGGLVQPGGSLRLSCVASGIIFKDYDFHWVRQVKEKGLEWVSAIGTAGDPYYAASVKGRFTVSRENGKNSVYLRMNNVGAGDTALYYCTSGNYFDRGSFRPSAFDMWGQGTMVTVSS
VL: EIVLTQSPGTLSLSPGERATLSCWASQSVSSNYLAWYQHKPGQAPRLLIFRASRRATDIPERFSAGGSGTDFTLTISRLEAEDSAVYYCQEYGSAPPASITFGQGTRLEIK
In the case of B9, the EC50 in assay [1] came to 0.514 nM; in assay [2] it was 0.172 nM.

B10: NI-307.1E1 (antibody, V domains shown)
VH: EVQLVESGGGLVKPGGSLRLSCAASGFIFSDAWMNWVRQAPGKGLEWVGHIKSRPAGGTTEYAAPVKGRFTISRDDSTDTLYLQMNNLKAEDTAVYYCSTGHYGVYGLGTLVTVSS
VL: DIQMTQSPSTLSASVGDRVTITCRASQSIRDYLAWYQQKPGKAPKLLIYDGSILEGGVPSRFSGSVSGTDFTLTISSLQSDDFATYYCQQYTSYSSWTFGQGTKVEIK
As to B10, the figures for the half-maximal effective concentration (EC50) in assay [1], in assay [2] and in assay [5] were 6.05 nM, 11 nM and 281 nM, respectively.

B11: NI-307.43E8 (antibody, V domains shown)
VH: EVQLVESGGDVVQPGRSLRLSCAASGFAFSIYAMNWVRQAPGKGLEWVALISTSGTEHYADSVKGRFTISRDNSKNTLFLQINSLRVEDTAVYYCARDLDSTGYYENNYWGQGTLVTVSS
VL: DVVMTQSPLSSPVSLGQPASISCRSSHSLVHSNGDTYLSWLQQRPGQPPRLLIYKISNRFSGVPDRFSGSGAGTDFTLKISRVEAEDVGVYFCMQATSFPRTFGQGTKVEIK
Take B11: the concentration for a half-maximal effect (EC50) in assay [3] was 0.34 nM; in assay [4], 0.38 nM.

B12: NI-307.24C6 (antibody, V domains shown)
VH: QLQLQESGPGLVKPSGTLSLICVVSGSSIRSNIWWWNWVRQSPGKGLEWIGEIYHSGSTNYSPSLKSRVTMSVDNSKNQFSLKMSSVTAADTAVYFCAINTRTSISGVLYDTFDVWGQGTMVTVSS
VL: EIVLTQSPATLSLSSGERATLSCRASQSVSGYLAWYQQKPGQAPRLLIYDGSNRATGIPARFSGSGSGTDFTLTISSLEPEDFAVYYCQHRSNWPMYTFGQGTKLEIK
On to B12, for which the 50% effective concentration (EC50) in assay [1] worked out at 0.816 nM; in assay [2] it was 0.396 nM.

B13: NI-307.24F3 (antibody, V domains shown)
VH: QVQLQESGGGVVQPGRSLRLSCAASGFSFNRYGMHWVRQAPGKGLEWLAVISNDGVNTHYADSVKGRFTISRDNSKSTLYLQASSLRVEDTAVYYCAGYYYGSGTSLFFYWGQGTLVTVSS
VL: EIVLTQSPDSLAVSLGERATINCKSSQTVLYSSNNQNYLAWYQQKPGQPPKLLLYWASTRESGVPDRFSGSGSGTDFTLTISSLQPEDVAVYYCQQYYTAPYTFGQGTKVEIK
In the case of B13, the EC50 in assay [1] stood at 1.04 nM; in assay [2] it was 28.8 nM.

B14: NI-307.26E10 (antibody, V domains shown)
VH: EVQLVESGGGLVLPGGSLRLSCAVSGFTVRNEYMRWARQAPGRGLEWVSVIYRDGQTHHADTVKGRFDVSKDTSKNTMYLQMHNLRVDDTAIYYCARGHYGPWGQGTLVTVSS
VL: DIQMTQSPSTLPASVGDRVTITCRASQSINNWLAWYQQKPGKAPNLLIYDASNLETGVPSRFSGSGSGTEFTLTISSLQPDDFATYYCQQYNSHSHTWTFGQGTKVEIK
As for B14, the EC50 in assay [1] turned out to be 1.35 nM; in assay [2], 0.74 nM.
